Target: T1, Mre11/Rad50 complex (Q9UZC9, Q9UZC8), HIS fusion (Pyrococcus abyssi, UniProt Q9UZC9 1-415; Q9UZC8 1-880)
T1 construct: Mre11 of Pyrococcus abyssi, full length, in the FL complex; Rad50 of Pyrococcus abyssi, full length, in the FL complex; also called Mre11 complex; source: E. coli Rosetta, purified on magnetic beads (details in Materials S1); not shown: His tag, N-terminal, kept
Assay: pull-down; 10 ug HIS fusion Mre11/Rad50 immobilised on Co2+ magnetic beads, with or without DNase I treatment, incubated with 0.5 ug PCNA 1 h at room temperature in TrisHCl 20 mM pH 8, NaCl 150 mM, DTT 1 mM with BSA; Western blot with anti-PCNA and anti-HisTag
Details: both partners purified

T1 sequence (Q9UZC9 whole entry, chain 1 of 2, the tested form may be a part): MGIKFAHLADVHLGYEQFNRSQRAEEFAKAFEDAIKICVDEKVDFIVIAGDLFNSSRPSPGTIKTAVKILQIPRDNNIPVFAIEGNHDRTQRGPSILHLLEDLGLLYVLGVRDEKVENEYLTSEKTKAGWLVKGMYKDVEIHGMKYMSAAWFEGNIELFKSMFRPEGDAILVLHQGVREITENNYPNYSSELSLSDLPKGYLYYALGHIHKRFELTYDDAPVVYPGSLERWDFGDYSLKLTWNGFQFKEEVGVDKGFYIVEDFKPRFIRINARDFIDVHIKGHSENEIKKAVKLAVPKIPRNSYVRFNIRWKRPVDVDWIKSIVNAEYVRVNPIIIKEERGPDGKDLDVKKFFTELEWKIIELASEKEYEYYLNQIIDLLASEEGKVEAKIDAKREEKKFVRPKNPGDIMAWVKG
T1 sequence (Q9UZC8 whole entry, chain 2 of 2, the tested form may be a part): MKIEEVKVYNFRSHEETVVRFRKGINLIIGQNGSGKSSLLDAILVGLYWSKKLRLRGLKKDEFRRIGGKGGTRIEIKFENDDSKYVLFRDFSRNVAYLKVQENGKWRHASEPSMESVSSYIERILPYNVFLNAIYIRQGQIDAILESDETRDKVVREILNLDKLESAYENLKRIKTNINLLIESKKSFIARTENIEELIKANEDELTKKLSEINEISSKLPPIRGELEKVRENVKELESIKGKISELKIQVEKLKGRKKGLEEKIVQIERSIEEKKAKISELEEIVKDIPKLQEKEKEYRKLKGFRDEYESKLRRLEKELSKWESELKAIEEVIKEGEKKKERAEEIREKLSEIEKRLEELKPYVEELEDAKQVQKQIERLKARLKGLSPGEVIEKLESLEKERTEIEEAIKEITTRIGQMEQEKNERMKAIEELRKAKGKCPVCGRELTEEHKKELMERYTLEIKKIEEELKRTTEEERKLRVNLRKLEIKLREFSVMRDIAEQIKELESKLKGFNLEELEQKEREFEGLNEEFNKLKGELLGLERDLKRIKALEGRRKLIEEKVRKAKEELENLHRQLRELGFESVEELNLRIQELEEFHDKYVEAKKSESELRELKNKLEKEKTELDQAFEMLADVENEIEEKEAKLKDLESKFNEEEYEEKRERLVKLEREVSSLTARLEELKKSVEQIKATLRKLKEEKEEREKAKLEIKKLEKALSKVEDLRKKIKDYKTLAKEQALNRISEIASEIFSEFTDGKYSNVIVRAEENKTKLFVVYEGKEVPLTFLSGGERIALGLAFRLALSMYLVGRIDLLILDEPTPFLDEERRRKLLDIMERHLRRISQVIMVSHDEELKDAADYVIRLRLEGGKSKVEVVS

binding result: binds
B1: purified PCNA (prey of the Mre11/Rad50 pull-down) (natural protein, Pyrococcus abyssi, UniProt Q9UYX8 1-249, looked up)
chain: MPFEIVFEGAKEFAQLIETASRLIDEAAFKVTEEGISMRAMDPSRVVLIDLNLPASIFSKYEVDGEETIGVNMDHLKKVLKRGKAKETLILRKGEENFLEISLQGTATRTFKLPLIDVEEIEVDLPELPFTAKVVILGDVIKEAVKDASLVSDSMKFIAKENEFTMRAEGETQEVEVKLTLEDEGLLDIEVQEETKSAYGISYLSDMVKGLGKADEVTIKFGNEMPMQMEYYIRDEGRLIFLLAPRVEE
notes: it was the prey on Co2+ beads and was detected with anti-PCNA, so it is kept apart from m1; source: purified
